In patent publication US20130071424A1:

What was measured:
[1] = target: AIDSVAX recombinant gp120 immunogen MN (AIDSVAX subtype B) (HIV-1 subtype B strain MN) (UniProt P05877); assay: ELISA, gp120 coated at 3 µg/ml, antibody titrated 0.002-10 µg/ml
[2] = target: AIDSVAX recombinant gp120 immunogen A244 (AIDSVAX subtype E) (HIV-1 subtype E (CRF01_AE) strain A244); assay: as above

| Substance | EC50 [1] [ng/mL] | EC50 [2] [ng/mL] |
| --- | --- | --- |
| human anti-V2 monoclonal antibody 697-D | 5.5 | 5.7 |
| human anti-V2 monoclonal antibody 2158 | 3.9 | 4.1 |
